According to patent US20240317858A1 (Adimab, published 2024):
Changes are numbered by the printed parent chain.

B1: Antibody No. V006 (ADI-67449) IgG1 (antibody, V domains shown)
VH: QVQLVQSGAEVKKPGASVKVSCKASGFNDKDYYMHWVRQAPGQRLEWMGWIDLENAETIYDAKFQDRVTITRDTSASTAYMELSSLRSEDTAVYYCARDAYGRYFYDVWGQGTLVTVSS
VL: DIVMTQSPDSLAVSLGERATINCKSSQSLLNARTGKNYLAWYQQKPGQPPKLLIYWASTRESGVPDRFSGSGSGTDFTLTISSLQAEDVAVYYCKQSYSRRTFGGGTKVEIK
notes: IgG1, CHO-produced
B2: Antibody No. V008 (ADI-70325) IgG1 (antibody, V domains shown)
VH: B1 VH with D29I, M48I, I59V
VL: B1 VL with T5S, E61S, K95V, S99F
notes: IgG1, CHO-produced
B3: Antibody No. V005 (ADI-67448) IgG1 (antibody, V domains shown)
VH: B1 VH with D29I, K30D, A56D, E57N, D66G
VL: B1 VL
notes: IgG1, CHO-produced; VH as printed is identical to that of V004
B4: Antibody No. V003 (ADI-67446) IgG1 (antibody, V domains shown)
VH: B1 VH with N28D, D29I, D52E, E57D, D66G
VL: B1 VL
notes: IgG1, CHO-produced
B5: Antibody No. V002 (ADI-67445) Fab (Fab, V domains shown)
VH: B1 VH with D29I, V108E
VL: B1 VL
notes: Fab by papain digestion of the IgG1
B6: Antibody No. V009 (ADI-70326) Fab (Fab, V domains shown)
VH: B1 VH with N28D, D29I, M48I, D52E, E57D, I59V, D66G
VL: B1 VL with T5S, E61S, K95V, S99F
notes: as for B5
B7: Antibody No. V018 (ADI-76361) Fab (Fab, V domains shown)
VH: B1 VH with N28D, D29I, N55E, A56G, E57N, D66G
VL: B1 VL with R100L
notes: as for B5
B8: Antibody No. V015 (ADI-76358) Fab (Fab, V domains shown)
VH: B1 VH with D29I, E57D, D66G, A100Q
VL: B1 VL
notes: as for B5
B9: Antibody No. V016 (ADI-76359) Fab (Fab, V domains shown)
VH: B1 VH with N28D, D29I, E57N, D66G, A97G
VL: B1 VL with R100L
notes: as for B5
B10: Antibody No. V010 (ADI-70327) Fab (Fab, V domains shown)
VH: B1 VH with N28D, D29I, M48I, D52E, A56D, E57D, I59V, D66G
VL: B1 VL with T5S, E61S, K95V, S99F
notes: as for B5
B11: Antibody No. V005 (ADI-67448) Fab (Fab, V domains shown)
VH: B1 VH with D29I, K30D, A56D, E57N, D66G
VL: B1 VL
notes: Fab by papain digestion of the IgG1; VH as printed is identical to that of V004
B12: Antibody No. V006 (ADI-67449) Fab (Fab, V domains shown)
VH: B1 VH
VL: B1 VL
notes: as for B5
B13: Antibody No. V012 (ADI-70329) Fab (Fab, V domains shown)
VH: B1 VH with M48I, I59V
VL: B1 VL with T5S, E61S, K95V, S99F
notes: as for B5
B14: Antibody No. V003 (ADI-67446) Fab (Fab, V domains shown)
VH: B1 VH with N28D, D29I, D52E, E57D, D66G
VL: B1 VL
notes: as for B5
B15: Antibody No. V008 (ADI-70325) Fab (Fab, V domains shown)
VH: B1 VH with D29I, M48I, I59V
VL: B1 VL with T5S, E61S, K95V, S99F
notes: as for B5

Target: T1, Human CD3 on CD3+ Jurkat cells (human, UniProt P07766 23-207)
T1 construct: whole, on cells; Target is the endogenous CD3 complex on cells; also called Human CD3+ Jurkat cells
Experiment: flow cytometry, 100 nM IgG
Procedure: (§1) Specificity of the anti-CD3 antibodies for human CD3+ Jurkat cells and Cynomolgus monkey HSC-F cells was determined using a FACS cell binding assay. Briefly, cells were thawed and washed with cold PBSF buffer (PBS+0.1% BSA, pH 7.4). About 200,000 cells were aliquoted per well of a 96-well plate and pelleted by centrifugation (5 minutes at 500×g). The cells were washed and resuspended in 100 μl PBSF with CHO-produced anti-CD3 IgG antibody (100 nM). The mixture (cells+antibody) was incubated for 20 minutes on ice, then washed twice with PBSF. Cells were resuspended in 50 μl of propidium iodide (1:500 dilution) and anti-human IgG-RPE (1:100 dilution) prepared in PBSF, then incubated for 20 minutes on ice in the dark before cells were washed twice with PBSF. Binding was analyzed on FACS Canto II. Also shown are results using cells without CD3 [CHO-S cells, Jurkat CD3 knockout (CD3−) cells, and HEK cells] for comparison, including results with Jurkat CD3-cells combined with anti-CD3 antibody Fab fragments (100 nM).

T1 sequence (P07766 23-207): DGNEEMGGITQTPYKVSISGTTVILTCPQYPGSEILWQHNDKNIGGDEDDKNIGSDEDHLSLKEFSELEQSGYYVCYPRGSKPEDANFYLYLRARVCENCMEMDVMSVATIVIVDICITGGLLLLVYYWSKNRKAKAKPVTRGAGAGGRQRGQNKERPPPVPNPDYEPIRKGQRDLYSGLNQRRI

Row | MFI [MFI] | Binder
1 | 3040 | B1
2 | 3200 | B2
3 | 3150 | B3
4 | 3020 | B4

Target: T2, Cynomolgus CD3 on HSC-F cells (cynomolgus, UniProt Q95LI5 22-198)
T2 construct: whole, on cells; Target is the endogenous CD3 complex on cells; also called Cyno CD3 HSC-F cells; Cyno CD3+ HSC-F cells
Experiment: flow cytometry, 100 nM IgG
Procedure: as §1

T2 sequence (Q95LI5 22-198): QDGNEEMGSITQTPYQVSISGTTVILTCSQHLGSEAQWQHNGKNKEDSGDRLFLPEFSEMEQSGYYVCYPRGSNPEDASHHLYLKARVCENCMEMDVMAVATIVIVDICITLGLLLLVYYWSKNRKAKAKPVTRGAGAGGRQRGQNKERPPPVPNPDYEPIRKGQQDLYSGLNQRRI

Row | MFI [MFI] | Binder
5 | 5750 | B1
6 | 6400 | B2
7 | 5940 | B3
8 | 6010 | B4

Target: T3, Human CD3εδ Fc heterodimer (Hu CD3ε Fc + CD3δ Fc-HIS) (human, UniProt P07766 22-126; P04234 22-100)
T3 construct: range 22-126;range 22-100; Made in HEK 293 cells with a heterologous signal peptide; also called Hu CD3εδ-Fc; CD3εδ Fc-HIS heterodimer; not shown: Fc; Fc followed by HIS tag
Experiment: BLI (Octet), Fab monovalent, pH 6.0
Procedure: (§2) ForteBio KD measurements (Biolayer interferometry; BLI). ForteBio affinity measurements were performed generally as previously described (Estep, P., et al., High throughput solution-based measurement of antibody-antigen affinity and epitope binning. MAbs, 2013. 5(2): p. 270-8.). Briefly, ForteBio affinity measurements were performed by loading IgGs or CD3εδ Fe-HIS heterodimer onto AHC sensors. Sensors were equilibrated off-line in assay buffer for 30 min and then monitored on-line for 60 seconds for baseline establishment. Sensors with loaded IgGs were exposed to 100 nM antigen (e.g., CD3) for 3 min, afterwards they were transferred to assay buffer for 10 min for off-rate measurement. Sensors loaded with CD3εδ Fe-HIS heterodimer were exposed to 100 nM anti-CD3 Fab for 3 min, afterwards they were transferred to assay buffer for 3 min or 10 min for off-rate measurement. Kinetics were analyzed using the 1:1 binding model. For measuring binding at different pHs, measurements were performed at pre-determined pHs (e.g., pH 7.4 and pH 6.0).
(§3) Anti-CD3 antibodies A001-A005, V002, V004, V007, V009, V010, V013, and V014-V019 were produced as IgG1s in CHO cells, and Fab fragments were generated from IgG1 antibodies by papain digestion and purification as described in Example 2. Human, cynomolgus, rhesus, and mouse CD3εδ Fc heterodimers were produced, and monovalent binding affinity and avidity at pH 7.4 and pH 6.0 were measured using the Octet® HTX instrument (ForteBio) as described in Example 2.

T3 sequence (P07766 22-126, stated change not applied, form in doubt, chain 1 of 2): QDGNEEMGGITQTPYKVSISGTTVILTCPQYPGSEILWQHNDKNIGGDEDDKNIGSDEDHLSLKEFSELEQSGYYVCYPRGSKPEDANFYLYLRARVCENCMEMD
T3 sequence (P04234 22-100, stated change not applied, form in doubt, chain 2 of 2): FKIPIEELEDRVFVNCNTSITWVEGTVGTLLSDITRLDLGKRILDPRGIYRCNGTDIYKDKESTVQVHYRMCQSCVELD

Row | Kd [nM] | Binder
9 | 8.8 | B5
10 | 1.2 | B6
11 | 33 | B7
12 | 34 | B8
13 | 37 | B9
14 | 2 | B10

Target: T4, Cynomolgus CD3εδ Fc heterodimer (Cy CD3ε Fc + CD3δ Fc-HIS) (cynomolgus, UniProt Q95LI5 22-117; Q95LI8 22-100)
T4 construct: range 22-117;range 22-100; Made in HEK 293 cells with a heterologous signal peptide; also called Cy CD3εδ-Fc; cyno CD3εδ Fc; not shown: Fc; Fc followed by HIS tag
Experiment: BLI (Octet), Fab monovalent, pH 6.0
Procedure: as §2, §3

T4 sequence (Q95LI5 22-117, stated change not applied, form in doubt, chain 1 of 2): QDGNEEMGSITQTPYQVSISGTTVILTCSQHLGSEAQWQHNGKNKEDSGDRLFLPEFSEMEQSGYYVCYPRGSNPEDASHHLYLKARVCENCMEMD
T4 sequence (Q95LI8 22-100, stated change not applied, form in doubt, chain 2 of 2): as the sequence (P04234 22-100, stated change not applied, form in doubt, chain 2 of 2) above, with I5V, N15K, I20V, S32T, D33N, I34N, T64A, S74N counted along it

Row | Kd [nM] | Binder
15 | 8 | B5
16 | 1.6 | B6
17 | 17 | B7
18 | 29 | B8
19 | 49 | B9
20 | 1.9 | B10

Target: T3, Human CD3εδ Fc heterodimer (Hu CD3ε Fc …)
Experiment: BLI (Octet), Fab monovalent, pH 7.4
Procedure: as §2, §3

Row | Kd [nM] | Binder
21 | 13 | B5
22 | 1.6 | B6
23 | 37 | B7
24 | 56 | B8
25 | 77 | B9
26 | 4.1 | B10

Target: T4, Cynomolgus CD3εδ Fc heterodimer (Cy …)
Experiment: BLI (Octet), Fab monovalent, pH 7.4
Procedure: as §2, §3

Row | Kd [nM] | Binder
27 | 12 | B5
28 | 1.9 | B6
29 | 28 | B7
30 | 58 | B8
31 | 75 | B9
32 | 3.4 | B10

Target: T5, Rhesus CD3εδ Fc heterodimer (rhesus)
T5 construct: extracellular domain; also called Rh CD3εδ-Fc
Experiment: BLI (Octet), Fab monovalent, pH 7.4
Procedure: as §2, §3

Row | Kd [nM] | Binder
33 | 15 | B5
34 | 1.8 | B6
35 | 29 | B7
36 | 53 | B8
37 | 87 | B9
38 | 4.4 | B10

Target: T3, Human CD3εδ Fc heterodimer (Hu CD3ε Fc …)
Experiment: BLI (Octet), CD3εδ Fc on AHC sensor, 100 nM Fab
Procedure: (§4) Affinity of the anti-CD3 antibodies for CD3 was determined by measuring their kinetic constants (kₒₙ, koff, KD) on ForteBio Octet®. ForteBio affinity measurements were performed generally as previously described (Estep et al., MAbs. 2013 5(2):270-8). […] Sensors were equilibrated off-line in assay buffer for 30 minutes and then monitored on-line for 60 seconds for baseline establishment. For monovalent binding measurement, sensors with loaded CD3εδ Fc were exposed to 100 nM anti-CD3 Fab, as further described in Example 2 below] for 3 minutes, afterwards they were transferred to assay buffer for 3 minutes for off-rate measurement. Kinetics data were fit using a 1:1 binding model in the data analysis software provided by ForteBio.

Row | Kd [nM] | Binder
39 | 7.84 | B5
40 | 6.98 | B11
41 | 7.97 | B12
42 | 0.81 | B6
43 | 1.65 | B13
44 | 4.57 | B14
45 | 0.95 | B15
46 | 1.92 | B10

Target: T4, Cynomolgus CD3εδ Fc heterodimer (Cy …)
Experiment: BLI (Octet), CD3εδ Fc on AHC sensor, 100 nM Fab
Procedure: as §4

Row | Kd [nM] | Binder
47 | 7.33 | B5
48 | 6.06 | B11
49 | 8.15 | B12
50 | 0.81 | B6
51 | 1.64 | B13
52 | 4.18 | B14
53 | 0.91 | B15
54 | 1.91 | B10

Target: T3, Human CD3εδ Fc heterodimer (Hu CD3ε Fc …)
Experiment: SPR (Biacore), Fab over immobilized CD3εδ Fc, pH 6.0
Procedure: (§5) Anti-CD3 antibodies A001-A005, V002, V004, V007, V009, V010, V013, and V014-V019 were produced in CHO cells, and Fab fragments were generated from IgG1 antibodies by papain digestion and purification as described in Example 2. Monovalent binding affinity at pH 7.4 and pH 6.0 was measured via surface plasmon resonance (SPR). Briefly, human or cynomolgus CD3εδ Fe heterodimer produced as described in Example 2 was immobilized to a CM5 sensor chip in a Biacore® X100 (Cytiva, previously GE Healthcare Life Sciences) to a response level of ˜500 RUs. Fabs were then injected at 3-fold increasing concentrations, ranging from 0.74-180 nM. The sensor chip was doubly regenerated between cycles using 0.35 M EDTA and 0.1 M NaOH. The resulting data were double reference subtracted and fit to a 1:1 binding model using Biacore® Evaluation Software.

Row | Kd [nM] | Binder
55 | 4.2 | B5
56 | 1.1 | B6
57 | 31 | B7
58 | 14 | B8
59 | 22 | B9
60 | 3.1 | B10

Target: T4, Cynomolgus CD3εδ Fc heterodimer (Cy …)
Experiment: as above
Procedure: as §5

Row | Kd [nM] | Binder
61 | 3.3 | B5
62 | 0.24 | B6
63 | 29 | B7
64 | 11 | B8
65 | 23 | B9
66 | 0.82 | B10

Target: T3, Human CD3εδ Fc heterodimer (Hu CD3ε Fc …)
Experiment: SPR (Biacore), Fab over immobilized CD3εδ Fc, pH 7.4
Procedure: as §5

Row | Kd [nM] | Binder
67 | 0.14 | B6
68 | 42 | B7
69 | 18 | B8
70 | 14 | B9
71 | 0.39 | B10

Target: T4, Cynomolgus CD3εδ Fc heterodimer (Cy …)
Experiment: as above
Procedure: as §5

Row | Kd [nM] | Binder
72 | 0.15 | B6
73 | 36 | B7
74 | 19 | B8
75 | 16 | B9
76 | 0.45 | B10
